In patent US20160200782A1 (MOERAE MATRIX, published 2016):
Each block holds one binder with its values, some of them ahead of it.

Columns and labels:
Assay in all cases: cell-based or functional assay
TSSK2(h) = target: T1, TSSK2(h) (human, UniProt Q96PF2 1-358)
T1 sequence (looked up): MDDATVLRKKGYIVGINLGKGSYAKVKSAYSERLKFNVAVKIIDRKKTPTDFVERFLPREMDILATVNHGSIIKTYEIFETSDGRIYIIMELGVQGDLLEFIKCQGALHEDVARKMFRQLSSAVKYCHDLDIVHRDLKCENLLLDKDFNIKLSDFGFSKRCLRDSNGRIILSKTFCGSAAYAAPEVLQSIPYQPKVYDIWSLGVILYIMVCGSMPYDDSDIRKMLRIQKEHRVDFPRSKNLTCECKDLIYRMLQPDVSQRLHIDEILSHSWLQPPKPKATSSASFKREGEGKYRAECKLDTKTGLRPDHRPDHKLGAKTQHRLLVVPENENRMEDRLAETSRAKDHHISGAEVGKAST

DAPK1(h) = DAPK1(h) (human, UniProt P53355 1-289, limits assumed)
MINK(h) = MINK(h) (human, UniProt Q8N4C8 1-320, limits assumed)
KDR(h) = KDR(h) (human, UniProt P35968 790-1356, limits assumed)
Src(T341M)(h) = Src(T341M)(h) (human, UniProt P12931 1-536, limits assumed)
Ax1(h) = target: T2, Ax1(h) (human, UniProt P30530 473-894, limits assumed)
T2 sequence (looked up): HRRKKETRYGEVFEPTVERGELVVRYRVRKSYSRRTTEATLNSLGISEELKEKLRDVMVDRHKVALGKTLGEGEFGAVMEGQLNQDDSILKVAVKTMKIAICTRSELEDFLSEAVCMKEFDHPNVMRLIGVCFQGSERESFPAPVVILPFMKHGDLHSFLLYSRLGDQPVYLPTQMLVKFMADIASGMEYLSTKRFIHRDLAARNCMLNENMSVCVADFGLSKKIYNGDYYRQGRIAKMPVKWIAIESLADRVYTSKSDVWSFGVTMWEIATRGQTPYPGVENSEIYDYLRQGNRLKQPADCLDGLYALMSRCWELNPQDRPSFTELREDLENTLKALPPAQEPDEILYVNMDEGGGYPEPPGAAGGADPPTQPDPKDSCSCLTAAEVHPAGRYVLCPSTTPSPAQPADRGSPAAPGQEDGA

CDK7/cyclinH/MAT1(h) = CDK7/cyclinH/MAT1(h) (human, UniProt P50613 1-346; P51946 1-323; P51948 1-309)
CK2(h) = CK2(h) (human)
eEF-2K(h) = target: T3, eEF-2K(h) (human, UniProt O00418 1-725, limits assumed)
T3 sequence (looked up): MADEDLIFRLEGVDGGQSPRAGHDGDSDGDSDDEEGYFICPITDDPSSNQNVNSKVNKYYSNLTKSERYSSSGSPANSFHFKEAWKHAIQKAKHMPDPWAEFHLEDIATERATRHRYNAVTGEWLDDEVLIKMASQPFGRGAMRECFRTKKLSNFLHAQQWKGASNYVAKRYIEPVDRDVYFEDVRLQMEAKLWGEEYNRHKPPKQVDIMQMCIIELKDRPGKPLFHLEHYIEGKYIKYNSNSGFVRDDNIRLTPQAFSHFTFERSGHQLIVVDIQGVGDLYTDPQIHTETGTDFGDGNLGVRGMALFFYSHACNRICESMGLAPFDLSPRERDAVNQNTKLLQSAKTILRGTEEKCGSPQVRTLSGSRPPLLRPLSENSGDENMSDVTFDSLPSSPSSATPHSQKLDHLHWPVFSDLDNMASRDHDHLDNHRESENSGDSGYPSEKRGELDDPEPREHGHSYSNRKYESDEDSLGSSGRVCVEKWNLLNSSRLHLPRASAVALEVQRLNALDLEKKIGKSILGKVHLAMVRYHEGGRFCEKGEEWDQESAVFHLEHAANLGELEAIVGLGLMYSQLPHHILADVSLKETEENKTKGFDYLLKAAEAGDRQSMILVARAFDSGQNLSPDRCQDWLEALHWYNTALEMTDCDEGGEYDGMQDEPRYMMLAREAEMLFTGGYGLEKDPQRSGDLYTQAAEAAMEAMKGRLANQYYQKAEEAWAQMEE

WNK3(h) = WNK3(h) (human, UniProt Q9BYP7 1-434, limits assumed)
EphA7(h) = EphA7(h) (human, UniProt Q15375 577-998, limits assumed)
PRK2(h) = PRK2(h) (human, UniProt Q16513 501-984, limits assumed)
Ab1(h) = Ab1(h) (human, UniProt P00519 27-1130, limits assumed)
Note: test concentration or dose not given here.

% activity (TSSK2(h)): 94%
% activity (DAPK1(h)): 36%
% activity (MINK(h)): 52%
% activity (KDR(h)): 94%
% activity (Src(T341M)(h)): 76%
% activity (Ax1(h)): 41%
% activity (CDK7/cyclinH/MAT1(h)): 47%
% activity (CK2(h)): 101%
% activity (eEF-2K(h)): 43%
% activity (WNK3(h)): 74%
% activity (EphA7(h)): 222%
% activity (PRK2(h)): 27%
% activity (Ab1(h)): 84%
B1: MMI-0400 (peptide)
peptide: KAFAKLAARLYRKALARQLGVAA

% activity (TSSK2(h)): 98%
% activity (DAPK1(h)): 46%
% activity (MINK(h)): 48%
% activity (KDR(h)): 101%
% activity (Src(T341M)(h)): 70%
% activity (Ax1(h)): 52%
% activity (CDK7/cyclinH/MAT1(h)): 65%
% activity (CK2(h)): 90%
% activity (eEF-2K(h)): 91%
% activity (WNK3(h)): 77%
% activity (EphA7(h)): 159%
% activity (PRK2(h)): 33%
% activity (Ab1(h)): 69%
B2: MMI-0300 (peptide)
peptide: FAKLAARLYRKALARQLGVAA
